Data as given in paper PMC4312099 (Nature, 2014).

Molecular target: recombinant human core Mitotic Checkpoint Complex (untagged CDC20, SBP-BUBR1, His6-MAD2) (human, UniProt Q12834;O60566;Q13257)
Experiment: pull-down

Sequence of recombinant human core Mitotic Checkpoint Complex (untagged CDC20, SBP-BUBR1, His6-MAD2) (O60566 whole entry, chain 2 of 2): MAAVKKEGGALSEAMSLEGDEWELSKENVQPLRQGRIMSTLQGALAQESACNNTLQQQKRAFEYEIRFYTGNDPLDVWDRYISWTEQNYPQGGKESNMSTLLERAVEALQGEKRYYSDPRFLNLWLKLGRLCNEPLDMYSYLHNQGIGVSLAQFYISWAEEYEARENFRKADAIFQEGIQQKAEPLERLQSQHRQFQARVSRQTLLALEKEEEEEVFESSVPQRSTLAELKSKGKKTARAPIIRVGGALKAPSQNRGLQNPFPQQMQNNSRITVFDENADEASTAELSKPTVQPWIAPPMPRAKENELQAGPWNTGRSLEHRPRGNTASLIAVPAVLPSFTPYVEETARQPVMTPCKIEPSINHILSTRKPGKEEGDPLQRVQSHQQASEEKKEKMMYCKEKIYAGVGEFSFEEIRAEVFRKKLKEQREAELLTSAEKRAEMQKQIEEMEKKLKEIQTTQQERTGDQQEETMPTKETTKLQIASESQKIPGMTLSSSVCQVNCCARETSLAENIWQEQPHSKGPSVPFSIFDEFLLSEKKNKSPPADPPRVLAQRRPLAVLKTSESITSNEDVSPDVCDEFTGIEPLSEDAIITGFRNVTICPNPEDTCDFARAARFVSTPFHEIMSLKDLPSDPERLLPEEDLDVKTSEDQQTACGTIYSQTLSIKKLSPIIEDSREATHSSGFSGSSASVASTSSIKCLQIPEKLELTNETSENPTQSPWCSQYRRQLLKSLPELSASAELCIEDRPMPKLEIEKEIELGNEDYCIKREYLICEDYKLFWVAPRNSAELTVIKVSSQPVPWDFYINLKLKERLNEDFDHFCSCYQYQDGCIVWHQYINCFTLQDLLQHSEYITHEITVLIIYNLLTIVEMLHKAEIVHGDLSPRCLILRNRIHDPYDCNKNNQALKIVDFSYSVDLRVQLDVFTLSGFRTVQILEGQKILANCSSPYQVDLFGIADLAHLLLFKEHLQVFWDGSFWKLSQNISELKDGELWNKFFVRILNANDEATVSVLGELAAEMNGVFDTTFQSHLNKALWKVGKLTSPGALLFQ
Sequence of recombinant human core Mitotic Checkpoint Complex (untagged CDC20, SBP-BUBR1, His6-MAD2) (Q13257 whole entry, chain 3 of 2): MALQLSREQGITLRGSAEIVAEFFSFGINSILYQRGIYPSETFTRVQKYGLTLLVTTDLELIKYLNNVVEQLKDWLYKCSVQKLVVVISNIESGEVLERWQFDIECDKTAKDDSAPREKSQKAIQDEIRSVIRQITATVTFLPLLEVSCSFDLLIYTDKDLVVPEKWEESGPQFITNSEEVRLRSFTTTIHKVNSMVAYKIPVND

binding result: binds
B1: recombinant His6-tagged CDC20 ΔKILR (K129ILR/AAAA) mutant (natural protein)
chain: MAQFAFESDLHSLLQLDAPIPNAPPARWQRKAKEAAGPAPSPMRAANRSHSAGRTPGRTPGKSSSKVQTTPSKPGGDRYIPHRSAAQMEVASFLLSKENQPENSQTPTKKEHQKAWALNLNGFDVEEAAAAALSGKPQNAPEGYQNRLKVLYSQKATPGSSRKTCRYIPSLPDRILDAPEIRNDYYLNLVDWSSGNVLAVALDNSVYLWSASSGDILQLLQMEQPGEYISSVAWIKEGNYLAVGTSSAEVQLWDVQQQKRLRNMTSHSARVGSLSWNSYILSSGSRSGHIHHHDVRVAEHHVATLSGHSQEVCGLRWAPDGRHLASGGNDNLVNVWPSAPGEGGWVPLQTFTQHQGAVKAVAWCPWQSNVLATGGGTSDRHIRIWNVCSGACLSAVDAHSQVCSILWSPHYKELISGHGFAQNQLVIWKYPTMAKVAELKGHTSRVLSLTMSPDGATVASAAADETLRLWRCFELDPARRREREKASAAKSSLIHQGIR
